US20210087289A1

B1: anti-CD44v9 monoclonal antibody mAb116 (antibody, V domains shown)
VH: QVQLQQSGAELVKPGASVKLSCTASGFNIKDTYMHWVKQRPEQGLEWIGRIDPANGNTKYDPKFQGKATITADTSSNTAYLQLSSLTSEDTAVYYCASRGEGTGFAYWGLGTLVTVSA
VL: DIVMTQSAPSVPVTPGESVSISCRSSKSLLHSNGNTYLYWFLQRPGQSPQLLIHRMSNLASGVPDRFSGSGSGTAFTLRISRVEAEDVGVYYCMQHLEYPFTFGGGTKLEIK
B2: mAb119-ADC (AMT119), mAb119 conjugated with MC-vc-PAB-MMAE (protein)
VH: EVQLQESGPELKKPGETVKISCKASGYIFTNYGMNWVKQAPGKGLKWMGWINTYTGEPTYADDFKGRFAFSLETSASTAYLQINNLKNEDTATYFCARTDYYGSSYWYFDVWGAGTTVTVSS
VL: DIQMTQTTSSLSASLGDRVTITCSASQGISNYLNWYQQKPDGTVKLLIFYTSTLPSGVPSRFSGSGSGTDYSLTIRNLEPEDFATYCCQQYSKFPYTFGGGTKLEIK
modifications: here or on the partner: MC-vc-PAB-MMAE conjugated to the antibody (average DAR about 6); attachment residues and chain not stated

Columns and labels:
[1] = molecular target: human CD44v9 (CD44 variant containing exon v9), as expressed on PC9 cells and in human tissues (human) (UniProt P16070); experiment: cell-based or functional assay
[2] = molecular target: human CD44v9 (CD44 variant containing exon v9), as expressed on PC9 cells and in human tissues (human) (UniProt P16070); experiment: FACS titration on PC9 cells (30000 pM to 0.1 pM, 3 fold serial dilution), Alexa488 anti-mouse IgG, MFI
[3] = molecular target: human CD44v6 (CD44 variant containing exon v6), as expressed on PC9 cells and in human tissues (human), P16070; experiment: cell-based or functional assay

Chain of UniProt P16070 (P16070 21-742, change not shown): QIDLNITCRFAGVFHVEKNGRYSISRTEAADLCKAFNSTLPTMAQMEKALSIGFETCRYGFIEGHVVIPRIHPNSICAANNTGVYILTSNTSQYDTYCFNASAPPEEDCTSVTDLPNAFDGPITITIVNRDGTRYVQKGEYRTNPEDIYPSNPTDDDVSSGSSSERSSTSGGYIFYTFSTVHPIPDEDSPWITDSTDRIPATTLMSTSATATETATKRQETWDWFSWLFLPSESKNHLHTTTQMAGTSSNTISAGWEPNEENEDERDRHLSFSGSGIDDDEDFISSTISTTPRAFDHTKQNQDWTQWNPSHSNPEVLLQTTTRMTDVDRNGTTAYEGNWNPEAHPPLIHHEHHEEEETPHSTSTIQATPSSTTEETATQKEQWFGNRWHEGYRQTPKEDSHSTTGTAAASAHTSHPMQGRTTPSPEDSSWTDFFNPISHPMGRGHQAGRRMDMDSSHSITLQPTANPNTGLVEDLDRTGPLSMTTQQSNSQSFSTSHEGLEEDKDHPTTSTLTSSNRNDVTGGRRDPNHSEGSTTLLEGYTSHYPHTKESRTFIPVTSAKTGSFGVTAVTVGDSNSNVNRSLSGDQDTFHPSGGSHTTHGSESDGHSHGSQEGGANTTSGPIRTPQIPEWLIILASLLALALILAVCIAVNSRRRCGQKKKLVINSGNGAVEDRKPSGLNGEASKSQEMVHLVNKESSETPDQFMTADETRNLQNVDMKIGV

| Binder | IC50 of PC9 growth inhibition (indirect cytotoxicity, mAb116 with 2 µg/mL MMAE-conjugated goat anti mouse IgG, 72 hrs, CCK8) [1] [nM] | Kd [2] [nM] | IC50 of cytotoxicity (growth inhibition) in PC9 cells [3] [nM] | IC50 of cytotoxicity (growth inhibition) in TE1 cells [3] [nM] |
| --- | --- | --- | --- | --- |
| B1 | 0.03 | 0.98 | – | – |
| B2 | – | – | 2.6 | 39 |
